{
  "source": "patent US20210309732A1",
  "about": "(ELIXIRON IMMUNOTHERAPEUTICS HONG KONG, published 2021)",
  "binders": {"B1": {"name": "1D2 SDR mutant HR100Q (antibody, IgG1, V domains shown)", "VH": "QVQLVQSGAEVKKPGASVKVSCEASGYTFTDKYLHWVRQAPGQGLEWMAWINPKSGGTFYAQNFKGRVTVTRDTSINTAYLELTSLRLDDTSTYYCARGQDYYDQGAADLWGQGTMVTVSS", "VL": "DIQLTQSPSSLSASVGDRVTITCRASQGINSVLAWYQQKPGKAPKLLLYAASKLESGVPSRFSGSGSGTDYTLTISSLQPEDFGTYYCQQYYSPVRTFGQGTKVEIKR", "notes": "also called X4 Q"}, "B2": {"name": "1D2 SDR mutant HR100S (antibody, IgG1, V domains shown)", "VH": "B1 VH with Q100S", "VL": "B1 VL", "notes": "also called X4 S"}, "B3": {"name": "1D2 SDR mutant HY102V (antibody, IgG1, V domains shown)", "VH": "B1 VH with Q100R, Y102V", "VL": "B1 VL", "notes": "also called X5 V"}, "B4": {"name": "1D2 SDR mutant LV32F (antibody, IgG1, V domains shown)", "VH": "B1 VH with Q100R", "VL": "B1 VL with V32F", "notes": "also called X8 F"}, "B5": {"name": "1D2 SDR mutant HY103L (antibody, IgG1, V domains shown)", "VH": "B1 VH with Q100R, Y103L", "VL": "B1 VL", "notes": "also called X6 L"}, "B6": {"name": "1D2 SDR mutant HR100V (antibody, IgG1, V domains shown)", "VH": "B1 VH with Q100V", "VL": "B1 VL", "notes": "also called X4 V"}, "B7": {"name": "1D2 SDR mutant LV32E (antibody, IgG1, V domains shown)", "VH": "B1 VH with Q100R", "VL": "B1 VL with V32E", "notes": "also called X8 E"}, "B8": {"name": "1D2 SDR mutant HY103W (antibody, IgG1, V domains shown)", "VH": "B1 VH with Q100R, Y103W", "VL": "B1 VL", "notes": "also called X6 W"}, "B9": {"name": "1D2 SDR mutant LV32G (antibody, IgG1, V domains shown)", "VH": "B1 VH with Q100R", "VL": "B1 VL with V32G", "notes": "also called X8 G"}, "B10": {"name": "1D2 SDR mutant HY103V (antibody, IgG1, V domains shown)", "VH": "B1 VH with Q100R, Y103V", "VL": "B1 VL", "notes": "also called X6 V"}, "B11": {"name": "1D2 SDR mutant HY102A (antibody, IgG1, V domains shown)", "VH": "B1 VH with Q100R, Y102A", "VL": "B1 VL", "notes": "also called X5 A"}, "B12": {"name": "1D2 SDR mutant HY103Q (antibody, IgG1, V domains shown)", "VH": "B1 VH with Q100R, Y103Q", "VL": "B1 VL", "notes": "also called X6 Q"}, "B13": {"name": "1D2 SDR mutant HY102N (antibody, IgG1, V domains shown)", "VH": "B1 VH with Q100R, Y102N", "VL": "B1 VL", "notes": "also called X5 N"}, "B14": {"name": "1D2 SDR mutant LP94C (antibody, IgG1, V domains shown)", "VH": "B1 VH with Q100R", "VL": "B1 VL with P94C", "notes": "also called X9 C"}, "B15": {"name": "1D2 SDR mutant HY103A (antibody, IgG1, V domains shown)", "VH": "B1 VH with Q100R, Y103A", "VL": "B1 VL", "notes": "also called X6 A"}, "B16": {"name": "1D2 SDR mutant HY102F (antibody, IgG1, V domains shown)", "VH": "B1 VH with Q100R, Y102F", "VL": "B1 VL", "notes": "also called X5 F"}, "B17": {"name": "1D2 SDR mutant HY102L (antibody, IgG1, V domains shown)", "VH": "B1 VH with Q100R, Y102L", "VL": "B1 VL", "notes": "also called X5 L"}, "B18": {"name": "1D2 SDR mutant HY103S (antibody, IgG1, V domains shown)", "VH": "B1 VH with Q100R, Y103S", "VL": "B1 VL", "notes": "also called X6 S"}, "B19": {"name": "1D2 SDR mutant HY103G (antibody, IgG1, V domains shown)", "VH": "B1 VH with Q100R, Y103G", "VL": "B1 VL", "notes": "also called X6 G"}, "B20": {"name": "1D2 SDR mutant HY102W (antibody, IgG1, V domains shown)", "VH": "B1 VH with Q100R, Y102W", "VL": "B1 VL", "notes": "also called X5 W"}, "B21": {"name": "1D2 SDR mutant HY103T (antibody, IgG1, V domains shown)", "VH": "B1 VH with Q100R, Y103T", "VL": "B1 VL", "notes": "also called X6 T"}, "B22": {"name": "1D2 SDR mutant HY102I (antibody, IgG1, V domains shown)", "VH": "B1 VH with Q100R, Y102I", "VL": "B1 VL", "notes": "also called X5 I"}, "B23": {"name": "1D2 SDR mutant HR100T (antibody, IgG1, V domains shown)", "VH": "B1 VH with Q100T", "VL": "B1 VL", "notes": "also called X4 T"}, "B24": {"name": "1D2 SDR mutant HY102S (antibody, IgG1, V domains shown)", "VH": "B1 VH with Q100R, Y102S", "VL": "B1 VL", "notes": "also called X5 S"}, "B25": {"name": "1D2 SDR mutant HY103F (antibody, IgG1, V domains shown)", "VH": "B1 VH with Q100R, Y103F", "VL": "B1 VL", "notes": "also called X6 F"}, "B26": {"name": "1D2 SDR mutant HY102G (antibody, IgG1, V domains shown)", "VH": "B1 VH with Q100R, Y102G", "VL": "B1 VL", "notes": "also called X5 G"}, "B27": {"name": "1D2 SDR mutant HY102T (antibody, IgG1, V domains shown)", "VH": "B1 VH with Q100R, Y102T", "VL": "B1 VL", "notes": "also called X5 T"}, "B28": {"name": "1D2 SDR mutant HY103P (antibody, IgG1, V domains shown)", "VH": "B1 VH with Q100R, Y103P", "VL": "B1 VL", "notes": "also called X6 P"}, "B29": {"name": "1D2 SDR mutant LP94R (antibody, IgG1, V domains shown)", "VH": "B1 VH with Q100R", "VL": "B1 VL with P94R", "notes": "also called X9 R"}, "B30": {"name": "1D2 SDR mutant HY103K (antibody, IgG1, V domains shown)", "VH": "B1 VH with Q100R, Y103K", "VL": "B1 VL", "notes": "also called X6 K"}, "B31": {"name": "1D2 SDR mutant HY103D (antibody, IgG1, V domains shown)", "VH": "B1 VH with Q100R, Y103D", "VL": "B1 VL", "notes": "also called X6 D"}, "B32": {"name": "1D2 SDR mutant HY103H (antibody, IgG1, V domains shown)", "VH": "B1 VH with Q100R, Y103H", "VL": "B1 VL", "notes": "also called X6 H"}, "B33": {"name": "1D2 SDR mutant HY103M (antibody, IgG1, V domains shown)", "VH": "B1 VH with Q100R, Y103M", "VL": "B1 VL", "notes": "also called X6 M"}},
  "note": "Residue numbers refer to the chain shown, from its start.",
  "data": [
    {"target": "T1, recombinant human GM-CSF (human, UniProt P04141 18-144)", "T1 construct": "also called rhGM-CSF; CSF2", "T1 sequence (P04141 18-144 limits assumed)": "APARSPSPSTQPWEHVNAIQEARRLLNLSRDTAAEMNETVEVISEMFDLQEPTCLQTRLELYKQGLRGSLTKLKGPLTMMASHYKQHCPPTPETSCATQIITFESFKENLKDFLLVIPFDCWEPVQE", "experiment": "ELISA on coated rhGM-CSF, UBA relative to 1D2", "text": "Some of the residues in the CDRs are essential for epitope binding affinity and/or specificity. A number of computational methods were developed to detect these functional residues, generally known as ‘specificity-determining resides’ (SDRs). […] Based on the analysis, 7 amino acid residues in VH and 3 amino acid residues in VL were selected as the SDRs. The residues are labeled X₁ to X₁₀ for the ease of reference. The SDRs on VH are: Heavy chain D31 (HD31) (X₁), HK32 (X₂), HK54(X₃), HR100 (X₄), HY102 (X₅), HY103 (X₆) and HQ105 (X₇). The SDRs on VL are Light chain V32 (LV32) (X₈), LP94 (X₉) and LV95 (X₁₀). The SDRs were subsequently mutated by site-directed mutagenesis to other amino acids to generate mutant VH or VL clones. HEK293 cells were co-transfected with a vector encoding a mutant VH paired with a vector encoding a wild type VL or a vector encoding a wild type VH paired with a vector encoding a mutant VL. The antibody clones were harvested from the culture medium. The binding affinity of each antibody clone to human GM-CSF was tested by ELISA. The ELISA was done according to the following procedures. ELISA plate was coated with 50 μl of rhGM-CSF at 1 μg/mL. The plate was washed with 200 μl PBST for three times, followed by blocking with 1% BSA for 1 hour at room temperature. The antibody clones to be tested were diluted at 1:12000. 100 μl of the diluted antibodies were added to the cell at 100 μl/well. The plate was incubated at room temperature for 1 hour. The plate was then washed and incubated with 1:5000 diluted goat-anti-human secondary antibody conjugated with HRP at room temperature for one hour. The ELISA assay was developed with 100 μl developing buffer containing H₂O₂-Amplx Red per well in the dark for 5 min and the fluorescence intensity was read at Ex.530/Em.590 nm, with cutoff at 570 nm. The Unit Binding Activity (UBA) of each sample was calculated as the fluorescence signal/antibody clone dilution factor.", "units": {"binding affinity % of 1D2": "%"}, "values": [
      {"binder": "B1", "binding affinity % of 1D2": 57},
      {"binder": "B2", "binding affinity % of 1D2": 72},
      {"binder": "B3", "binding affinity % of 1D2": 71},
      {"binder": "B4", "binding affinity % of 1D2": 109},
      {"binder": "B5", "binding affinity % of 1D2": 67},
      {"binder": "B6", "binding affinity % of 1D2": 74},
      {"binder": "B7", "binding affinity % of 1D2": 110},
      {"binder": "B8", "binding affinity % of 1D2": 139},
      {"binder": "B9", "binding affinity % of 1D2": 297},
      {"binder": "B10", "binding affinity % of 1D2": 88},
      {"binder": "B11", "binding affinity % of 1D2": 68},
      {"binder": "B12", "binding affinity % of 1D2": 74},
      {"binder": "B13", "binding affinity % of 1D2": 83},
      {"binder": "B14", "binding affinity % of 1D2": 253},
      {"binder": "B15", "binding affinity % of 1D2": 88},
      {"binder": "B16", "binding affinity % of 1D2": 71},
      {"binder": "B17", "binding affinity % of 1D2": 86},
      {"binder": "B18", "binding affinity % of 1D2": 85},
      {"binder": "B19", "binding affinity % of 1D2": 138},
      {"binder": "B20", "binding affinity % of 1D2": 82},
      {"binder": "B21", "binding affinity % of 1D2": 104},
      {"binder": "B22", "binding affinity % of 1D2": 64},
      {"binder": "B23", "binding affinity % of 1D2": 93},
      {"binder": "B24", "binding affinity % of 1D2": 104},
      {"binder": "B25", "binding affinity % of 1D2": 81},
      {"binder": "B26", "binding affinity % of 1D2": 89},
      {"binder": "B27", "binding affinity % of 1D2": 56},
      {"binder": "B28", "binding affinity % of 1D2": 141},
      {"binder": "B29", "binding affinity % of 1D2": 146},
      {"binder": "B30", "binding affinity % of 1D2": 143},
      {"binder": "B31", "binding affinity % of 1D2": 134},
      {"binder": "B32", "binding affinity % of 1D2": 109},
      {"binder": "B33", "binding affinity % of 1D2": 94}
    ]}
  ]
}
